System: LPS-induced release of endogenous TNFα
Experiment: Mouse model for septic shock, LPS-induced TNFα release in serum of genetically humanized mice
Assay type: in vivo
Conditions: antibody 250 μg/kg in 200 μL PBS injected 1h before LPS 50 μg per mouse; serum 2h after LPS
Procedure: In the following study, ELISA-based TNFα release assays were performed to verify the inhibitory effects of the antibodies of the invention on LPS-induced release of endogenous TNFα in a mouse model for septic shock. The experiment was conducted using genetically humanized mice, in which parts of the mouse genomic iRhom2 DNA (exons which encode for the antibody binding site) were replaced by the corresponding human genomic DNA sequences. All animal experiments were approved by the Institutional Animal Care and Use Committee of the Hospital for Special Surgery and Weill Cornell Medicine.
On day 1, one group of mice was injected with the antibodies of the invention at a concentration of 250 μg/kg in 200 μL PBS. A second group was injected with the same volume of PBS only (200 μl PBS per mouse). 1h later all mice were subjected to an injection of LPS (Sigma, USA) at a concentration of 50 μg/200 μL per mouse (250 ng/μL). All mice were closely monitored and euthanized after 2h by CO2 inhalation. […]
For measuring TNFα release, Mouse TNF-α Uncoated ELISA Kit (Invitrogen, USA) was used. […] The color reaction was stopped by the addition of 100 μl 2N sulfuric acid (Sigma, USA) and the ELISA plate was read at the wavelength of 450 nm using a Multiskan Titertek Plate reader (VWR, USA).

B1: 42-B-02: humanized antibody binding human iRhom2; HCVD SEQ ID NO 33, LCVD SEQ ID NO 37 (antibody, V domains shown)
VH: QVTLRESGPALVKPTQTLTLTCTFSGFSLSTFGRGVGWIRQPPGKALEWLAHIWWDDEKYYNSALKSRLTISKDTSKNQVVLTITNMDPVDTATYYCARIQNYGSNYWYFDVWGQGTLVTVSS
VL: AIQLTQSPSSLSASVGDRVTITCRASSRISYMFWYQQKPGKAPKVLIYDTSNLASGVPSRFSGSGSGTDYTLTISSLQPEDFATYYCQQWNSYPLTFGQGTKLEIK
modifications: antibody sequences
  LPS-induced release of TNFα in serum of genetically humanized mice, percent release (buffer treated control animals set to 100%): 17.3%

From patent publication US12404345B2, “Humanized antibodies against iRHOM2” (SCIRHOM GMBH, priority 2021, dated 2025)
